# Test results published in patent US7964369 (Stanford University, dated 2011).
# T1: SOS vector alone (hSOS without GRAIL) (human, UniProt Q07889 1-1066)
# T1 construct: Negative control bait of the yeast two-hybrid screen
# T1 sequence (looked up): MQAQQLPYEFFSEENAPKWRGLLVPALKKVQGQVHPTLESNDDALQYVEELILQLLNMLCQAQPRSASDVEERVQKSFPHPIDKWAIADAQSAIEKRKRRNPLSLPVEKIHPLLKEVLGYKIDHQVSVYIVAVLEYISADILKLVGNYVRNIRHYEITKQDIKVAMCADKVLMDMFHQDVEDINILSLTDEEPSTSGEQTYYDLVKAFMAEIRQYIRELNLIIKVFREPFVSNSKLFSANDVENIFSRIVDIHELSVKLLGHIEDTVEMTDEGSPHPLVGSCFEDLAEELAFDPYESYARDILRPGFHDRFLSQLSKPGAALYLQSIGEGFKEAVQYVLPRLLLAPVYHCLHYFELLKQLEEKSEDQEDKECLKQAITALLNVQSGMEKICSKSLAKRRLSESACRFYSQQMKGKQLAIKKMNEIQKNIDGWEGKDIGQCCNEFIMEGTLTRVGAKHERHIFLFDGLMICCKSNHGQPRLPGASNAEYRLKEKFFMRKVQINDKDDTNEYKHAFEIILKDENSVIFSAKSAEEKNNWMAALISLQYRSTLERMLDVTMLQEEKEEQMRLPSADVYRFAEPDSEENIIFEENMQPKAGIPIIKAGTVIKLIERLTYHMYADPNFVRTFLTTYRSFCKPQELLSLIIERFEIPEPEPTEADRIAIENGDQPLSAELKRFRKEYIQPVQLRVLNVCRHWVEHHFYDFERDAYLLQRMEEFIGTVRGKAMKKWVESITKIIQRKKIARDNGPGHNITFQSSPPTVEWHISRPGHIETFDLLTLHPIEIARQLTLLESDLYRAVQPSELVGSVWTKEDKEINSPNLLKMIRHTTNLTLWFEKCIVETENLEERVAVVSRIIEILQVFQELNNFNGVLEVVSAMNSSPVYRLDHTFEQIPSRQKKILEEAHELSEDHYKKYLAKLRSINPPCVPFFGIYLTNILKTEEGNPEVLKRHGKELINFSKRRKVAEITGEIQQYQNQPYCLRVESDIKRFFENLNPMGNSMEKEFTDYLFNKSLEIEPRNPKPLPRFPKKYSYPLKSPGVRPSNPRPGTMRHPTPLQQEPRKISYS
# B1: clone 6A-36 (98% identical to human FLJ20113, OTUBAIN-1) (enzyme, mouse, UniProt Q7TQI3 97-271, looked up)
# chain: GFSHLEALLDDSKELQRFKAVSAKSKEDLVSQGFTEFTIEDFHNTFMDLIEQVEKQTSVADLLASFNDQSTSDYLVVYLRLLTSGYLQRESKFFEHFIEGGRTVKEFCQQEVEPMCKESDHIHIIALAQALSVSIQVEYMDRGEGGTTNPHVFPEGSEPKVYLLYRPGHYDILYK
# notes: Partial clone of mouse otubain-1; also called 525 bp insert; 525 bp cDNA fragment; not shown: myristoylation signal of the pMyr plasmid
# Target: T1, SOS vector alone (hSOS without GRAIL)
# Test: yeast two-hybrid (CytoTrap), secondary screen, growth on galactose at 37 C
# Description: Table I: A mouse liver library cloned into pMyr vector was purchased from Stratagene (La Jolla, CA). The C-terminal half of GRAIL, starting at F225 was PCR amplified, cloned into the pSOS vector, and used as bait. Yeast competent cells were co-transformed with either the bait and library or control vectors as described in the CytoTrap instruction manual (Stratagene). More than 5 x 10^5 clones were screened. Colonies displaying growth on galactose but not glucose at 37° C. were considered to be putative positives and were evaluated in a secondary screen. Colonies growing in the secondary screen on galactose at 37° C. and in the presence of the GRAIL-SOS bait vector, but not the SOS vector alone, were considered true interactors and sequenced.
# Yeast and bacterial two-hybrid analysis. A mouse liver library cloned into pMyr vector was purchased from Stratagene (La Jolla, Calif.). The C-terminal half of Grail, starting at F225, was PCR amplified, cloned into the pSOS vector, and used as bait. Yeast competent cells were co-transformed with either the bait and library or control vectors as described in the CytoTrap instruction manual (Stratagene). More than 5 ×10^5 clones were screened. Colonies displaying growth on galactose but not glucose at 37° C. were considered to be putative positives and were used on a secondary screen. […]
binder,measurement,value
B1,binding result,no binding
